How the values were obtained:
[1] = molecular target: human MIC-A (expressed on P815 mastocytoma cells) (human) (UniProt Q29983); assay: cell-based or functional assay
[2] = molecular target: human NKG2D ligand on human tumor cell lines (Jurkat, RPMI8866, K562, Daubi, U937, ECC-1); assay: cell-based or functional assay

Chain of UniProt Q29983 (Q29983 24-383): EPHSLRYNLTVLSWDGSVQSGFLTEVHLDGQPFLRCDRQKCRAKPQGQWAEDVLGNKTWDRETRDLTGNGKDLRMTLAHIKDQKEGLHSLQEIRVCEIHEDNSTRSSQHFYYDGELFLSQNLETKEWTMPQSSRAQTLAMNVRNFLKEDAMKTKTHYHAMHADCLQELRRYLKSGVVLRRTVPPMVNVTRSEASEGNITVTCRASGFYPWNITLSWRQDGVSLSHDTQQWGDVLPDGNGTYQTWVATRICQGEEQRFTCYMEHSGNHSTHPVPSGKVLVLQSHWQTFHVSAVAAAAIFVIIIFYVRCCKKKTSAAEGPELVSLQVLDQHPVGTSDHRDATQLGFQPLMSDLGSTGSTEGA

Specific Lysis (%) of P815/MIC-A, Effector:Target Ratio 1 [1]: 5.4% | Specific Lysis (%) of P815/MIC-A, Effector:Target Ratio 5 [1]: 17.3% | Specific Lysis (%) of P815/MIC-A, Effector:Target Ratio 25 [1]: 35.4% | Specific Lysis (%) of K562, Effector:Target Ratio 1, with control antibody [2]: 3.1% | Specific Lysis (%) of K562, Effector:Target Ratio 5, with control antibody [2]: 17.6% | Specific Lysis (%) of K562, Effector:Target Ratio 25, with control antibody [2]: 53.8% | Specific Lysis (%) of RPMI8866, Effector:Target Ratio 1, with control antibody [2]: 9.3% | Specific Lysis (%) of RPMI8866, Effector:Target Ratio 5, with control antibody [2]: 27.4% | Specific Lysis (%) of RPMI8866, Effector:Target Ratio 25, with control antibody [2]: 41.6%
Substance: human chimeric NKG2D (human CD3ζ attached to the N-terminus of human NKG2D) (receptor)

— patent publication US20190338011A1
